First the molecules themselves.
B1: F372L (protein, listed as Avena sativa)
chain: MPPTPATATGAAAAAVTPEHAARSFPRVVRVNPRSDRFPVLSFHHVELWCADAASAAGRFSFALGAPLAARSDLSTGNSAHASLLLRSGALAFLFTAPYAPPPQEAATAAATASIPSFSADAARTFAAAHGLAVRSVGVRVADAAEAFRVSVAGGARPAFAPADLGHGFGLAEVELYGDVVLRFVSYPDETDLPFLPGFERVSSPGAVDYGLTRFDHVVGNVPEMAPVIDYMKGFLGFHEFAEFTAEDVGTTESGLNSVVLANNSEAVLLPLNEPVHGTKRRSQIQTYLEYHGGPGVQHIALASNDVLRTLREMRARTPMGGFEFMAPPQAKYYEGVRRIAGDVLSEEQIKECQELGVLVDRDDQGVLLQILTKPVGDRPTFFLEMIQRIGCMEKDEVGQEYQKGGCGGFGKGNFSELFKSIEDYEKSLEVKQSVVAQKS
modifications: AsHPPD Amido Acid Sequence
B2: F372K. (protein, listed as Avena sativa)
chain: B1 chain with L372K
modifications: AsHPPD Amido Acid Sequence
B3: F372E (protein, listed as Avena sativa)
chain: B1 chain with L372E
modifications: AsHPPD Amido Acid Sequence
B4: F372T (protein, listed as Avena sativa)
chain: B1 chain with L372T
modifications: AsHPPD Amido Acid Sequence
B5: F372P (protein, listed as Avena sativa)
chain: B1 chain with L372P
modifications: AsHPPD Amido Acid Sequence
B6: F372C (protein, listed as Avena sativa)
chain: B1 chain with L372C
modifications: AsHPPD Amido Acid Sequence
B7: F372M (protein, listed as Avena sativa)
chain: B1 chain with L372M
modifications: AsHPPD Amido Acid Sequence
B8: F372S (protein, listed as Avena sativa)
chain: B1 chain with L372S
modifications: AsHPPD Amido Acid Sequence
B9: F372W (protein, listed as Avena sativa)
chain: B1 chain with L372W
modifications: AsHPPD Amido Acid Sequence

Here are results for nine molecules from patent US20230212587A1, “Mutant Hydroxyphenylpyruvate Dioxygenase Polypeptide, Encoding Gene Thereof and Use Therefor” (Beijing Dabeinong Biotechnology Co., Ltd., priority 2019, published 2023).

Changes are numbered by the printed parent chain. Names may count otherwise.

The test system of one assay is Arabidopsis thaliana T1 plants. The assay is described as follows: Topramezone tolerance of transgenic Arabidopsis thaliana T1 plants (pesticide damage grade by bleached leaf area, score, resistance evaluation). The format is in vivo. Particulars: topramezone 25 g ai/ha (1x); HPPD from Avena sativa source. On the set-up: score: scale not given here. The method, boiled down:
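Eighteen days after sowing, wild-type and HPPD-transgenic T1 Arabidopsis receive a topramezone spray at 1×, 2× or 4× field rate (25–100 g ai/ha) or water. Seven days later each plant is graded by its proportion of bleached leaf area.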
For B1, the “Resistance Grade” value is on record as “Highly resistant” and the score is recorded as 0.

On to B2, for which the “Resistance Grade” value is reported as “Moderately resistant” and the score worked out at 33.

Take B3: the “Resistance Grade” value is “Poorly resistant” and the score was determined as 60.

With B4, the “Resistance Grade” value is “Highly resistant” and the score stood at 0.

For the molecule B5, the “Resistance Grade” value was “Highly resistant” and the score stood at 0.

With B6, the “Resistance Grade” value was “Highly resistant” and the score worked out at 0.

With B7, the “Resistance Grade” value is reported as “Highly resistant” and the score is listed as 0.

As to B8, the “Resistance Grade” value is listed as “Highly resistant” and the score worked out at 0.

For B9, the “Resistance Grade” value is reported as “Poorly resistant” and the score is 37.

The same assay, now with this note: topramezone 25 g ai/ha (1x); number of plants; HPPD from Avena sativa source.
On to B1, for which the “Grade 0” value is on record as 20, the “Grade 1” value was 0, the “Grade 2” value was 0 and the “Grade 3” value is 0.

With B2, the “Grade 0” value is 0, the “Grade 1” value came to 20, the “Grade 2” value is 0 and the “Grade 3” value is on record as 0.

B3: the “Grade 0” value is listed as 0, the “Grade 1” value is 8, the “Grade 2” value amounted to 8 and the “Grade 3” value is on record as 4.

In the case of B4, the “Grade 0” value amounted to 20, the “Grade 1” value was 0, the “Grade 2” value is reported as 0 and the “Grade 3” value worked out at 0.

As for B5, the “Grade 0” value was found to be 20, the “Grade 1” value turned out to be 0, the “Grade 2” value is recorded as 0 and the “Grade 3” value is on record as 0.

With B6, the “Grade 0” value stood at 20, the “Grade 1” value is on record as 0, the “Grade 2” value stood at 0 and the “Grade 3” value is listed as 0.

For the molecule B7, the “Grade 0” value was 20, the “Grade 1” value amounted to 0, the “Grade 2” value is recorded as 0 and the “Grade 3” value is recorded as 0.

Regarding B8, the “Grade 0” value came to 20, the “Grade 1” value is 0, the “Grade 2” value turned out to be 0 and the “Grade 3” value was found to be 0.

Turning to B9, the “Grade 0” value is listed as 6, the “Grade 1” value is listed as 6, the “Grade 2” value is 8 and the “Grade 3” value is reported as 0.

The same assay, now with this note: topramezone 50 g ai/ha (2x); HPPD from Avena sativa source.
With B1, the “Resistance Grade” value is reported as “Highly resistant” and the score is recorded as 0.

With B2, the “Resistance Grade” value is on record as “Poorly resistant” and the score was determined as 47.

In the case of B3, the “Resistance Grade” value was “Poorly resistant” and the score stood at 63.

As for B4, the “Resistance Grade” value is reported as “Highly resistant” and the score is 3.

Take B5: the “Resistance Grade” value is “Highly resistant” and the score came out at 0.

As for B6, the “Resistance Grade” value is “Highly resistant” and the score is on record as 3.

As for B7, the “Resistance Grade” value is “Moderately resistant” and the score is given as 20.

Consider B8, for which the “Resistance Grade” value is “Highly resistant” and the score worked out at 0.

In the case of B9, the “Resistance Grade” value was “Non-resistant” and the score is on record as 100.

The assay is the same for the next values; noted with them: topramezone 50 g ai/ha (2x); number of plants; HPPD from Avena sativa source.
With B1, the “Grade 0” value was found to be 20, the “Grade 1” value worked out at 0, the “Grade 2” value is given as 0 and the “Grade 3” value came out at 0.

Take B2: the “Grade 0” value was 2, the “Grade 1” value is listed as 8, the “Grade 2” value is recorded as 10 and the “Grade 3” value was determined as 0.

For B3, the “Grade 0” value amounted to 0, the “Grade 1” value was 6, the “Grade 2” value came out at 10 and the “Grade 3” value is recorded as 4.

For B4, the “Grade 0” value stood at 18, the “Grade 1” value is 2, the “Grade 2” value is on record as 0 and the “Grade 3” value was found to be 0.

On to B5, for which the “Grade 0” value was found to be 20, the “Grade 1” value is 0, the “Grade 2” value is 0 and the “Grade 3” value is on record as 0.

Consider B6, for which the “Grade 0” value is given as 18, the “Grade 1” value was 2, the “Grade 2” value was found to be 0 and the “Grade 3” value turned out to be 0.

Regarding B7, the “Grade 0” value amounted to 8, the “Grade 1” value was 12, the “Grade 2” value is 0 and the “Grade 3” value is given as 0.

Regarding B8, the “Grade 0” value was determined as 20, the “Grade 1” value was found to be 0, the “Grade 2” value was found to be 0 and the “Grade 3” value was 0.

Turning to B9, the “Grade 0” value was 0, the “Grade 1” value is recorded as 0, the “Grade 2” value amounted to 0 and the “Grade 3” value is reported as 20.

The assay is the same for the next values; noted with them: topramezone 100 g ai/ha (4x); HPPD from Avena sativa source.
As to B1, the “Resistance Grade” value was “Moderately resistant” and the score is reported as 30.

B2: the “Resistance Grade” value is “Non-resistant” and the score turned out to be 90.

In the case of B3, the “Resistance Grade” value was “Non-resistant” and the score is 97.

As to B4, the “Resistance Grade” value is on record as “Moderately resistant” and the score is on record as 17.

As to B5, the “Resistance Grade” value is on record as “Moderately resistant” and the score is on record as 33.

On to B6, for which the “Resistance Grade” value is “Moderately resistant” and the score was 27.

As for B7, the “Resistance Grade” value is reported as “Poorly resistant” and the score was 50.

In the case of B8, the “Resistance Grade” value was “Highly resistant” and the score is listed as 0.

As for B9, the “Resistance Grade” value is “Non-resistant” and the score stood at 100.

The same assay, now with this note: topramezone 100 g ai/ha (4x); number of plants; HPPD from Avena sativa source.
As for B1, the “Grade 0” value is 6, the “Grade 1” value worked out at 10, the “Grade 2” value was 4 and the “Grade 3” value is 0.

Consider B2, for which the “Grade 0” value was found to be 0, the “Grade 1” value came out at 0, the “Grade 2” value worked out at 6 and the “Grade 3” value was 14.

With B3, the “Grade 0” value is listed as 0, the “Grade 1” value amounted to 0, the “Grade 2” value came to 2 and the “Grade 3” value amounted to 18.

As to B4, the “Grade 0” value worked out at 10, the “Grade 1” value stood at 10, the “Grade 2” value stood at 0 and the “Grade 3” value is given as 0.

Regarding B5, the “Grade 0” value is on record as 4, the “Grade 1” value was 12, the “Grade 2” value is recorded as 4 and the “Grade 3” value was 0.

As to B6, the “Grade 0” value was 8, the “Grade 1” value is 8, the “Grade 2” value stood at 4 and the “Grade 3” value is reported as 0.

As for B7, the “Grade 0” value turned out to be 2, the “Grade 1” value stood at 6, the “Grade 2” value is 12 and the “Grade 3” value came out at 0.

In the case of B8, the “Grade 0” value came out at 20, the “Grade 1” value worked out at 0, the “Grade 2” value was 0 and the “Grade 3” value was found to be 0.

With B9, the “Grade 0” value turned out to be 0, the “Grade 1” value amounted to 0, the “Grade 2” value was 0 and the “Grade 3” value was 20.
